T1: ERα (Homo sapiens, UniProt P03372)
T1 construct: expressed in transfected cells; host or cells: COS-7
T1 sequence (P03372 1-595): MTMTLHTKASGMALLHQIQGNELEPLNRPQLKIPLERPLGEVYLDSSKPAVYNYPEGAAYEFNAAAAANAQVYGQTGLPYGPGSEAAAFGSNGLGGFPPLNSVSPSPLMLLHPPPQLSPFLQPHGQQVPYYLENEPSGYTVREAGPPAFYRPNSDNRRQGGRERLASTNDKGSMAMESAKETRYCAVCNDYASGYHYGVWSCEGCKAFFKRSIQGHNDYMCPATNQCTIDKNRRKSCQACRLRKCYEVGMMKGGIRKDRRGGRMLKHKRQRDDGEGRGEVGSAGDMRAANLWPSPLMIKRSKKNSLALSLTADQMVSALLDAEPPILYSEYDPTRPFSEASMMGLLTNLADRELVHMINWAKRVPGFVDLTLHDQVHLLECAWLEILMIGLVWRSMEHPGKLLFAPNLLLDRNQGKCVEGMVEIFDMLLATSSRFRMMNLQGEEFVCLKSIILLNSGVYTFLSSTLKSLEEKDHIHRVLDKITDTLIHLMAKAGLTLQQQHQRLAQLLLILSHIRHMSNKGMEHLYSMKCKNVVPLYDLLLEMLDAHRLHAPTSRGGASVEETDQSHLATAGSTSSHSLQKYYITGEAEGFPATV

T2: GR (Homo sapiens, UniProt P04150)
T2 construct: expressed in transfected cells; host or cells: COS-7
T2 sequence (P04150 1-777): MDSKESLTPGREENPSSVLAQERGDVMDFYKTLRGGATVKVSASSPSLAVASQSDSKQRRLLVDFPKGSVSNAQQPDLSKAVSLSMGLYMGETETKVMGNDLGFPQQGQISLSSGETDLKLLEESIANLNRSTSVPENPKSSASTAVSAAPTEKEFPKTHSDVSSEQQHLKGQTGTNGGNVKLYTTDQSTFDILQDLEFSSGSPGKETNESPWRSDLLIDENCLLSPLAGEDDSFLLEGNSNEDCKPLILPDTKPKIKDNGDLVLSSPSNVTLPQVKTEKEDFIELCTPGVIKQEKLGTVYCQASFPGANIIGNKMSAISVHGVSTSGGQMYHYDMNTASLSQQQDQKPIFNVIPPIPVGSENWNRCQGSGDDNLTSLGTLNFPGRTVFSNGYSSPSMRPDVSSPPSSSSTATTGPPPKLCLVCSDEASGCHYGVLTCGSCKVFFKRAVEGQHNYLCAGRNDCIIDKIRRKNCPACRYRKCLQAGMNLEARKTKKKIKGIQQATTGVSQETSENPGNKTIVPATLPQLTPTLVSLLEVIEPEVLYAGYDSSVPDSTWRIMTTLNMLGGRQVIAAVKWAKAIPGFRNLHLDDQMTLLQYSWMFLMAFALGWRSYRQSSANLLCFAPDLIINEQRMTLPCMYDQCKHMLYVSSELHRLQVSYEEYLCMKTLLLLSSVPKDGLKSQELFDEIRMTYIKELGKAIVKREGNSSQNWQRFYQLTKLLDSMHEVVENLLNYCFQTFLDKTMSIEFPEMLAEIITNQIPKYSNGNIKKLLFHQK

T3: PR (Homo sapiens, UniProt P06401)
T3 construct: expressed in transfected cells; host or cells: COS-7
T3 sequence (P06401 1-933): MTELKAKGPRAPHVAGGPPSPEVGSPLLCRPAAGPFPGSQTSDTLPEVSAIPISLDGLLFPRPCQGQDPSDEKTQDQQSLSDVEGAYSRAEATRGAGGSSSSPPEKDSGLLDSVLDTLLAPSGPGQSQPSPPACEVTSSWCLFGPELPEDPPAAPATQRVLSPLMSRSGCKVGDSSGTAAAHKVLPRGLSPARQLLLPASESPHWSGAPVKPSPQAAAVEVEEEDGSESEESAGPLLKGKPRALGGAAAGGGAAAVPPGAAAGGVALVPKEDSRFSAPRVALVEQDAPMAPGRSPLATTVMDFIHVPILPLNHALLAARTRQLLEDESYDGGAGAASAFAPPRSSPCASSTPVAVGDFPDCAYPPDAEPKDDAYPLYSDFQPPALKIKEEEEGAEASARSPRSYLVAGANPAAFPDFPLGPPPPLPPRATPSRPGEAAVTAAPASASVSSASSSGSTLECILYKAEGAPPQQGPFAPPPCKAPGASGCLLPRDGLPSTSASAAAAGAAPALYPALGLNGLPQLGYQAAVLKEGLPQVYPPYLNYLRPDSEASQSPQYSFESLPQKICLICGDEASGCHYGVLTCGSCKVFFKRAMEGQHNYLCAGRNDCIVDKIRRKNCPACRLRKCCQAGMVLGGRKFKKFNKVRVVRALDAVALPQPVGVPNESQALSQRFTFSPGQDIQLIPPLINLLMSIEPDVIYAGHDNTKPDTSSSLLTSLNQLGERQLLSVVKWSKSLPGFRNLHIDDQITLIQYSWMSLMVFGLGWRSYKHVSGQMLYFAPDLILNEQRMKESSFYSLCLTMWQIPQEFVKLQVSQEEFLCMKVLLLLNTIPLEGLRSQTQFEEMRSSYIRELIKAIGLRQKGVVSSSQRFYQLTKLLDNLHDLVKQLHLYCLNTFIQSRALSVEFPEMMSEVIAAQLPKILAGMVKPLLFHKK

T4: VDR (Homo sapiens, UniProt P11473)
T4 construct: expressed in transfected cells; host or cells: COS-7
T4 sequence (P11473 1-427): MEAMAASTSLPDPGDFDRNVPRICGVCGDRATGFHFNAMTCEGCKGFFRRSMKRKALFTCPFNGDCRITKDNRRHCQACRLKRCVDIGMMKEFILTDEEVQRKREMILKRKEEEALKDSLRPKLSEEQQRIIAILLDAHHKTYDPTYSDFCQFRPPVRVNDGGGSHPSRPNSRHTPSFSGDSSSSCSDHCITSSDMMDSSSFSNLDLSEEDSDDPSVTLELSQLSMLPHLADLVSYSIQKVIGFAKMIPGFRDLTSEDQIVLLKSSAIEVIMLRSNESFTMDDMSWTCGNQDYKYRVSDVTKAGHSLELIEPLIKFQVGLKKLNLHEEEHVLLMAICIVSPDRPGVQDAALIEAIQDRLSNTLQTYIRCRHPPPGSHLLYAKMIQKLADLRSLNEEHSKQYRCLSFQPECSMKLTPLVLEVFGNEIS

T5: interaction of LCoR and ERα (Homo sapiens, UniProt P03372)
T5 construct: expressed in transfected cells; host or cells: COS-7
T5 sequence (P03372 1-595): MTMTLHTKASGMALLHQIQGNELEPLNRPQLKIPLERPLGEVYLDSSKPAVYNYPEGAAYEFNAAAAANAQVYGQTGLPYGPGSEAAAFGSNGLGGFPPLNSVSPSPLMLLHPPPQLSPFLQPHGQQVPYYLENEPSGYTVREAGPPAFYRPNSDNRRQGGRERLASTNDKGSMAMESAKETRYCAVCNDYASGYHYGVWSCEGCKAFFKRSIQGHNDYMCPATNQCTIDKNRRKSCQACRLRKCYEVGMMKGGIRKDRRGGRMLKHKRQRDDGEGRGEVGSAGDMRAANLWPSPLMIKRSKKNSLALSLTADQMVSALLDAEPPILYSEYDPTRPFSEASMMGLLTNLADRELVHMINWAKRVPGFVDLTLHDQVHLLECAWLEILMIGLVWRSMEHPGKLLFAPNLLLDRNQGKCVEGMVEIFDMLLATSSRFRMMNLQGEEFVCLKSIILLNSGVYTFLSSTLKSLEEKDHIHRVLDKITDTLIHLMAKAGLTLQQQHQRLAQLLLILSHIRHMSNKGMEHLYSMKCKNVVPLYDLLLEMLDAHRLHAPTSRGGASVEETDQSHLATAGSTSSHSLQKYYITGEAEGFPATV


Columns and labels:
Assay type in all cases: cell-based
ERα = molecular target: T1, ERα; assay: Transient transfection luciferase reporter, ERα transactivation in COS-7 cells; conditions: coexpression in COS-7 cells, 10^−7M hormone, ERE3-TATA-pXP2 reporter
Protocol: (§1) All cell lines were cultured under the recommended conditions. COS-7 cells grown in […] in DMEM without phenol red, supplemented with 10% FBS were transfected in medium without serum with lipofectamine 2000 (Invitrogen, Burlington, Ont.) with 100 ng of nuclear receptor expression vectors as indicated, 200 ng of TIF-2 or TIF-2.1, as indicated, 250 ng of reporter plasmid, 250 ng of infemal control vector pCMV-βgal, and various concentrations of LCoR/pSG5 or LCoR-LSKAA/pSG5 expression vectors and pSG5 carrier. Medium was replaced 24 h after transfection by a medium containing charcoal-stripped serum and ligand (100 nM) and TSA (3 μM) for 18 h, as indicated. Cells were harvested in 200 […] of reporter lysis buffer (Promega).
(§2) COS-7 cells were cotransfected with expression vectors for ERα HEG0 (A and C) or GR (D) or PR (F) or VDR (H), ERE3-TATA-pXP2 (A and C), GRE5/pXP2 (D and F) or VDRE3tk/pXP2 (H) luciferase reporter vectors, pCMV-β-gal as internal control, and LCoR/pSG5 or LSKAA/pSG5 expression vectors as indicated. Cells were treated with 10^−7M of hormones (solid bars) or vehicle (open bars). Normalized luciferase activities (RLU) are the means±SEM from at least 3 experiments. […] Cells were transfected as in FIG. 5A with LCoR, TIF-2 or TIF2.1 as indicated. […]

GR = molecular target: T2, GR; assay: Transient transfection luciferase reporter, GR transactivation in COS-7 cells; conditions: 1 μg of transfected LCoR, COS-7; one range given for GR, PR and VDR together
Protocol: as §1, §2

PR = molecular target: T3, PR; assay: Transient transfection luciferase reporter, PR transactivation in COS-7 cells; conditions: 1 μg of transfected LCoR, COS-7; one range given for GR, PR and VDR together
Protocol: as §1, §2

VDR = molecular target: T4, VDR; assay: Transient transfection luciferase reporter, VDR transactivation in COS-7 cells; conditions: 1 μg of transfected LCoR, COS-7; one range given for GR, PR and VDR together
Protocol: as §1, §2

5×17 mer-tk promoter = assay: GAL4-LCoR repression of 5×17 mer-tk promoter in COS-7 cells
Protocol: as §1, §2

nuclear receptors = assay: Ligand-dependent transactivation by nuclear receptors (summary)
Protocol: as §1, §2

[1] = molecular target: T5, interaction of LCoR and ERα; assay: BRET assay of LCoR-ERα interaction in living COS-7 cells; conditions: rluc-LCoR-LSKAA versus rluc-LCoR, COS-7 cells
Protocol: Readings were started immediately after coelenterazine H addition, and 10 repeated measures were taken.
Interaction of ERα and LCoR in vivo was further tested by bioluminescence resonance energy transfer (BRET) in living COS-7 cells transiently cotransfected with plasmids expressing ERα-EYFP and LCoR-rluc fusion proteins. […] BRET ratios were calculated as described in experimental procedures.

| Molecule | repression of hormone-dependent transactivation by ERα (ERα) | repression of ligand-activated transcription, glucocorticoid receptor (GR) | repression of ligand-activated transcription, progesterone receptor (PR) | repression of ligand-activated transcription, vitamin D receptor (VDR) | effect on the 5×17 mer-tk promoter (5×17 mer-tk promoter) | inhibition of ligand-dependent transactivation by nuclear receptors (nuclear receptors) | effect of NR box mutation on interaction with ERα (BRET) [1] |
| --- | --- | --- | --- | --- | --- | --- | --- |
| LCoR: novel 433 amino acid nuclear receptor corepressor polypeptide (SEQ ID NO:2) with a single LXXLL NR box (protein, listed as Homo sapiens) MQRMIQQFAAEYTSKNSSTQDPSQPNSTKNQSLPKASPVTTSPTAATTQNPVLSKLLMADQDSPLDLTVRKSQSEPSEQDGVLDLSTKKSPCAGSTSLSHSPGCSSTQGNGRPGRPSQYRPDGLRSGDGVPPRSLQDGTREGFGHSTSLKVPLARSLQISEELLSRNQLSTAASLGPSGLQNHGQHLILSREASWAKPHYEFNLSRMKFRGNGALSNISDLPFLAENSAFPKMALQAKQDGKKDVSHSSPVDLKIPQVRGMDLSWESRTGDQYSYSSLVMGSQTESALSKKLRAILPKQSRKSMLDAGPDSWGSDAEQSTPGQPYPTSDQEGDPGSKQPRKKRGRYRQYNSEILEEAISVVMSGKMSVSKAQSIYGIPHSTLEYKVKERLGTLKNPPKKKMKLMRSEGPDVSVKIELDPQGEAAQSANESKNE | dose-dependent repression | 2.2-5 fold | 2.2-5 fold | 2.2-5 fold | had no effect | up to 5 fold | – |
| LCoR-LSKAA: LCoR with point mutagenesis of NR box LSKLL to LSKAA at position 53 (protein) MQRMIQQFAAEYTSKNSSTQDPSQPNSTKNQSLPKASPVTTSPTAATTQNPVLSKAAMADQDSPLDLTVRKSQSEPSEQDGVLDLSTKKSPCAGSTSLSHSPGCSSTQGNGRPGRPSQYRPDGLRSGDGVPPRSLQDGTREGFGHSTSLKVPLARSLQISEELLSRNQLSTAASLGPSGLQNHGQHLILSREASWAKPHYEFNLSRMKFRGNGALSNISDLPFLAENSAFPKMALQAKQDGKKDVSHSSPVDLKIPQVRGMDLSWESRTGDQYSYSSLVMGSQTESALSKKLRAILPKQSRKSMLDAGPDSWGSDAEQSTPGQPYPTSDQEGDPGSKQPRKKRGRYRQYNSEILEEAISVVMSGKMSVSKAQSIYGIPHSTLEYKVKERLGTLKNPPKKKMKLMRSEGPDVSVKIELDPQGEAAQSANESKNE | had no effect | – | – | – | – | – | largely disrupted hormone-dependent interaction and reduced hormone-independent interaction of the two proteins by approximately two-fold |

From patent US20070054353A1, “Nuclear receptor transcriptional corepressor and uses thereof” (priority 2002, published 2007)
